Measured values published in patent publication US11739318B1, “Modified biosensors and biocatalysts and methods of use” (priority 2017, dated 2023).
Numbering of substitutions follows the chain as printed. Names may count otherwise.

B1: UbiC_C21: E. coli UbiC variant with mutations M34V/I78V (protein, UniProt P26602 2-165, looked up, variant M34V I78V)
Chorismate pyruvate-lyase: SHPALTQLRALRYCKEIPALDPQLLDWLLLEDSVTKRFEQQGKTVSVTMIREGFVEQNEIPEELPLLPKESRYWLREVLLCADGEPWLAGRTVVPVSTLSGPELALQKLGKTPLGRYLFTSSTLTRDFIEIGRDAGLWGRRSRLRLSGKPLLLTELFLPASPLY
B2: UbiC_C22: E. coli UbiC variant with mutations E31Q/M34V (protein, UniProt P26602 2-165, looked up, variant E31Q M34V)
Chorismate pyruvate-lyase: B1 Chorismate pyruvate-lyase with E31Q, V78I
B3: PcaR-G5: PcaR variant for a low sensitivity BKA sensor, SEQ ID NO: 26 (protein)
chain: MSDETLGNDSGNAEVARPASAAMAPPIVASPAKRIQAFTGDPDFMTSLARGLAVIQAFQERKRHLTIAQISHRTEIPRAAVRRCLHTLIKLGYATTDGRTYSLLPKVLTLGHAYLSSTPLAISAQPYLDRISDQLHEAANMATLEGDDILYIARSATVERLISVDLSVGGRMPAYCTSMGRILLAAMDDTSLREYLERADLKARTSRTLNDPESLFACIQQVRAQGWCVVDQELEQGVRAIAVPVYDASGQVLAALSVSTHVGRVTRSELEQRFLPILLAASRDLCHQLFG
modifications: PcaR-G5
B4: PcaR-F6: PcaR variant for a low sensitivity BKA sensor, SEQ ID NO: 27 (protein)
chain: B3 chain with M172L, V238M, A240T
modifications: PcaR-F6
B5: PcaR-H6: PcaR variant for a low sensitivity BKA sensor, SEQ ID NO: 28 (protein)
chain: B3 chain with A240S
modifications: PcaR-H6
B6: UbiC_C11: E. coli UbiC variant with mutations E31Q/I78V/L80V (protein, UniProt P26602 2-165, looked up, variant E31Q I78V L80V)
Chorismate pyruvate-lyase: B1 Chorismate pyruvate-lyase with E31Q, V34M, L80V
B7: H115W/V346A: PON1 version that combines the two mutations H115W/V346A (protein, UniProt P27169 2-355, looked up, variant H115W V346A)
Serum …: AKLIALTLLGMGLALFRNHQSSYQTRLNALREVQPVELPNCNLVKGIETGSEDLEILPNGLAFISSGLKYPGIKSFNPNSPGKILLMDLNEEDPTVLELGITGSKFDVSSFNPWGISTFTDEDNAMYLLVVNHPDAKSTVELFKFQEEEKSLLHLKTIRHKLLPNLNDIVAVGPEHFYGTNDHYFLDPYLQSWEMYLGLAWSYVVYYSPSEVRVVAEGFDFANGINISPDGKYVYIAELLAHKIHVYEKHANWTLTPLKSLDFNTLVDNISVDPETGDLWVGCHPNGMKIFFYDSENPPASEVLRIQNILTEEPKVTQVYAENGTVLQGSTVASVYKGKLLIGTAFHKALYCEL

Legend:
[1] = UbiC enzyme kinetic parameters (pyruvate release coupled to lactate dehydrogenase, NADH oxidation at 340 nm); type: biochemical; details: sfGFP fused UbiC variants with C-terminal 6xHis tag, 30° C., pH 7.5; for Km: chorismate
Procedure: Enzyme expression and purification: 5 mL cultures were grown from the glycerol stocks of P. putida CJ182 containing plasmids encoding 6×His-tag UbiC variants. At an OD600 of ˜0.6, the cultures were induced with 1 mM 4HB and further grown for 16 h at 30° C. and 225 rpm shaking. The cultures were centrifuged at 3500×g for 10 min and the cell pellets were lysed with 500 μL BugBuster (Novagen) under slow shaking for 30 min. The cell lysates were centrifuged at 15,000×g for 15 min at 4° C. and the sfGFP-UbiC fusion proteins were purified by Affinity Chromatography using Talon beads (Clontech). For purification, the clarified supernatant for each UbiC variant was mixed with 200 μL Talon beads in an equilibration buffer (50 mM Tris-HCl, 300 mM NaCl, pH 7.5) for 30 min. The mixture was centrifuged at 2000×g, the supernatant was discarded and the pellet consisting of Talon beads with bound protein was washed two times with equilibration buffer containing 50 mM imidazole. Finally, the beads were mixed with elution buffer (50 mM Tris-HCl, 300 mM NaCl, 300 mM Imidazole, pH 7.5) and filtered through a spin column with 0.2 µm filter. The enzyme concentration and purity of the protein in the eluate were determined by absorbance at 280 nm using a Nanodrop (Thermo Scientific) and SDS polyacrylamide gel electrophoresis, respectively.
Determining enzyme kinetic parameters: The production of 4HB from chorismate catalyzed by UbiC is accompanied with release of a pyruvate molecule. […] The reactions were conducted in 96-well plate at 30° C. in the Synergy H4 Hybrid Microplate Reader (Biotek). The kinetic parameters and product inhibition constants were determined by measuring the initial reaction rates with respect to varying substrate and product concentrations and calculated using GraphPad Prism software.

[2] = tested on: P. putida CJ200; test: Shake flask muconate production; type: cell-based; details: plasmid expressed, over CJ200 with no heterologous UbiC expression
Procedure: Shake flask experiments for muconate production: P. putida CJ200 transformed with pPobR_ubiC plasmids or with genomically integrated ubiC-C22 under PobR regulation (NP015) were grown in 125 mL baffled shake flasks containing 25 mL of 1×M9 salts (6.78 g/L Na2HPO4, 3 g/L KH2PO4, 0.5 g/L NaCl, 1 g/L NH4Cl), 30-50 mM glucose, 2 mM MgSO4, 100 μM CaCl2), 18 μM FeSO4, and 50 μg/mL kanamycin. Seed cultures were grown from glycerol stocks in LB media supplemented with 50 μg/mL kanamycin, for 16 hours, pelleted and washed with M9 growth medium and subcultured into flasks to a final OD600 of 0.05. Cultures were incubated at 30° C. and 225 rpm for up to 2 days. Samples were taken at regular intervals to quantify cell density, glucose consumption, and muconate concentration.
Quantification of glucose and muconate concentrations using High Performance Liquid Chromatography (HPLC): To measure muconate concentration, culture samples collected at various time points were centrifuged either at 3,500 rpm for 10 min or 16,000 rpm for 1 min. […] The samples were analyzed for 10 min on a Fast Acid column (Phenomenex Rezex RFQ-Fast Acid H+(8%)) using 0.01 N H2SO4 at a flow rate of 0.8 mL/min as a mobile phase. […] Alternatively, the samples were analyzed for 40 min on a SUPELCOGEL H Column (SUPELCO) with 0.1% H2SO4 at 0.5 mL/min. […]

[3] = tested on: BKA; test: BKA sensing with PcaR variants in high BKA producing strain NN7; type: cell-based, P. putida; details: strain NN7, LB background BKA production
Text: Rosetta homology modeling, using a known structure of a transcription factor with a homologous sequence (PDB code 2G7U) was used to get a 3D estimate of the PcaR inducer binding domain. Based on the predicted structure, several amino acids in the pocket were identified to be suitable for mutagenesis. […] Positions N140, L161, L166, L172, M179, L234, L238, S240, N257 and S259 were mutated for diversification to achieve N/S/T/I at positions 140 and 257, L/M/V at positions 161, 166, 172, 179, 234 and 238, S/T/A at position 240 and 259. This produced a library of diversity>100,000. The library was transformed in high BKA producing strain where native pcaR gene was deleted (strain NN7) and screened for increase fluorescence response with increasing dose of precursors while in the LB mediated BKA production background.

[4] = tested on: pNP sensor; test: Raw whole cell fluorescence with pNP sensor and sfGFP-PON1 under positive feedback regulation, flow cytometer; type: cell-based, E. coli; details: mean of duplicate cultures ± SD
Text: FIGS. 16A-16D show ‘Catalyze’ and ‘sense’ system for hydrolysis reactions. […] UI: background fluorescence from cells without any pNP source to induce the TF; […]; pNP: TF induced by exogenously supplied pNP as a control/reference. […] Relative activity levels are distinguishable by eye.
The technique described here (referred to in this example as “smart microbial cells” or SMC; e.g., FIGS. 1A and 1B) allows for catalysis and sensing in the same microbial cell. For a practical library application, we simplified and improved the signal to noise ratio of the biosensor. This was achieved by gene fusing the PON1 to the GFP so that the TF is also regulating the catalytic enzyme expression as well (scheme shown in FIG. 1B). This fusion is expected to have three distinct effects. First, it provides positive feedback, such that more the activity, the more PON1 is expressed, and in turn further ‘feeds’ the activity. […] Second, feedback will amplify the already present correlation between activity and GFP expression. Third, for suitably chosen GFP, the fluorescence signal conveniently reports the amount of fused PON1 present, allowing normalization for specific activity.
. Based on the catalytic efficiency and the cytoplasmic concentration of the hydrolase, PXN hydrolysis results in a correlated pNP production inside the microbial cell that ultimately determines activation of the pNP sensor and accumulation of sfGFP in the cells. […] When pNP was used as an inducer, such that the expression of sfGFP-PON1 expression is independent of the catalytic efficiency of PON1, modest differences in cell fluorescence were still captured across the PON1 variants indicating V346A mutation could be detrimental to PON1 expression and stability (FIG. 16C, Table 6).

Molecule	kcat [1] [s⁻¹]	Km [1] [µM]	fluorescence response with BKA precursors, catechol and PCA [3]	also measured
B1	0.67 ± 0.06	90.2 ± 7.8	–	muconate yield increase [2]: ~130%
B2	1.04 ± 0.09	148 ± 9.4	–	muconate yield increase [2]: ~130%
B3	–	–	showed dose dependent response	–
B4	–	–	showed dose dependent response	–
B5	–	–	showed dose dependent response	–
B6	0.51 ± 0.04	54.7 ± 3.4	–	–
B7	–	–	–	Raw whole cell fluorescence intensity, PXN (1.6 mM) ([4]; exogenous paraoxon 1.6 mM): 2410 ± 669; Raw whole cell fluorescence intensity, pNP (200 μM) ([4]; induced with exogenous pNP 200 μM): 11484 ± 2032; Raw whole cell fluorescence intensity, UI ([4]; uninduced, no pNP source): 248 ± 36
